Measurements: patent US20100003690A1 (published 2010)

Target: hERG 1b (human, UniProt Q12809 377-1159)
Assay: cell-based or functional assay

B1: hERG 1a (other, human, UniProt Q12809 1-1159, looked up)
chain: MPVRRGHVAPQNTFLDTIIRKFEGQSRKFIIANARVENCAVIYCNDGFCELCGYSRAEVMQRPCTCDFLHGPRTQRRAAAQIAQALLGAEERKVEIAFYRKDGSCFLCLVDVVPVKNEDGAVIMFILNFEVVMEKDMVGSPAHDTNHRGPPTSWLAPGRAKTFRLKLPALLALTARESSVRSGGAGGAGAPGAVVVDVDLTPAAPSSESLALDEVTAMDNHVAGLGPAEERRALVGPGSPPRSAPGQLPSPRAHSLNPDASGSSCSLARTRSRESCASVRRASSADDIEAMRAGVLPPPPRHASTGAMHPLRSGLLNSTSDSDLVRYRTISKIPQITLNFVDLKGDPFLASPTSDREIIAPKIKERTHNVTEKVTQVLSLGADVLPEYKLQAPRIHRWTILHYSPFKAVWDWLILLLVIYTAVFTPYSAAFLLKETEEGPPATECGYACQPLAVVDLIVDIMFIVDILINFRTTYVNANEEVVSHPGRIAVHYFKGWFLIDMVAAIPFDLLIFGSGSEELIGLLKTARLLRLVRVARKLDRYSEYGAAVLFLLMCTFALIAHWLACIWYAIGNMEQPHMDSRIGWLHNLGDQIGKPYNSSGLGGPSIKDKYVTALYFTFSSLTSVGFGNVSPNTNSEKIFSICVMLIGSLMYASIFGNVSAIIQRLYSGTARYHTQMLRVREFIRFHQIPNPLRQRLEEYFQHAWSYTNGIDMNAVLKGFPECLQADICLHLNRSLLQHCKPFRGATKGCLRALAMKFKTTHAPPGDTLVHAGDLLTALYFISRGSIEILRGDVVVAILGKNDIFGEPLNLYARPGKSNGDVRALTYCDLHKIHRDDLLEVLDMYPEFSDHFWSSLEITFNLRDTNMIPGSPGSTELEGGFSRQRKRKLSFRRRTDKDTEQPGEVSALGPGRAGAGPSSRGRPGGPWGESPSSGPSSPESSEDEGPGRSSSPLRLVPFSSPRPPGEPPGGEPLMEDCEKSSDTCNPLSGAFSGVSNIFSFWGDSRGRQYQELPRCPAPTPSLLNIPLSSPGRRPRGDVESRLDALQRQLNRLETRLSADMATVLQLLQRQMTLVPPAYSAVTTPGPGPTSTSPLLPVSPLPTLTLDSLSQVSQFMACEELPPGAPELPQEGPTRRLSLPGQLGALTSQPLHRHGSDPGS
- hERG 1b maturation by Western blot analysis: ~3 fold
